Results published in PMC9352680, “A comprehensive thermodynamic model for RNA binding by the Saccharomyces cerevisiae Pumilio protein PUF4”.
Numbering of substitutions follows the chain as printed. Names may count otherwise.

T1: PUF4 RNA-binding domain (Saccharomyces cerevisiae, UniProt P25339 537-888)
T1 sequence: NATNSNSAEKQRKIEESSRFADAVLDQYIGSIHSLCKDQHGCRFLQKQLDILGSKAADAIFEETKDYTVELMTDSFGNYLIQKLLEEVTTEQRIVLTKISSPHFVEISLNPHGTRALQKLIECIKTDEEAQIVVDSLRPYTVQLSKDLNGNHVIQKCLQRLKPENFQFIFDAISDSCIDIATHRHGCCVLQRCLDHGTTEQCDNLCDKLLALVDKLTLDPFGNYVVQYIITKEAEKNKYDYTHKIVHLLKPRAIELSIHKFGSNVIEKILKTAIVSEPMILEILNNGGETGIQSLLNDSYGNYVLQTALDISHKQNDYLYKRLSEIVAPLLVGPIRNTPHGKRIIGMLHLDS

B1: Id_ii_S2_P3E.3_K3.2_C3.2_[C-2G]_H3.2_A3.1_F3.1_T3.2_[A10C] (ssRNA)
RNA: UUUGAUUAAUAUGAUAUCGUUCUUUCUGUUAUAUAUAUCUUCUUUCUCGAUAUCAUAUUAAUCUUU
B2: Id_ii_S2_P3E.3_K3.2_C3.2_[C-2A]_H3.2_A3.1_F3.1_T3.2_[T9A]_[A10T] (ssRNA)
RNA: B1 RNA with G28A, U38A, C39U
B3: Id_ii_S2_P3E.3_K3.2_C3.2_[C-2A]_[T-1G]_H3.2_A3.1_F3.1_T3.2_[T9A]_[A10T] (ssRNA)
RNA: B1 RNA with G28A, U29G, U38A, C39U
B4: Id_ii_S2_P3E.3_K3.2_C3.2_[C-2A]_[T-1C]_H3.2_A3.1_F3.1_T3.2_[T9C]_[A10C] (ssRNA)
RNA: B1 RNA with G28A, U29C, U38C
B5: Id_ii_S2_P3E.3_K3.2_C3.2_[C-2A]_H3.2_A3.1_F3.1_T3.2_[T9C]_[A10C] (ssRNA)
RNA: B1 RNA with G28A, U38C
B6: Id_ii_S2_P3E.3_K3.2_C3.2_[C-2T]_H3.2_A3.1_F3.1_T3.2_[T9A]_[A10T] (ssRNA)
RNA: B1 RNA with G28U, U38A, C39U
B7: Id_ii_S2_P3E.3_K3.2_C3.2_[C-2T]_[T-1G]_H3.2_A3.1_F3.1_T3.2_[T9G]_[A10T] (ssRNA)
RNA: B1 RNA with G28U, U29G, U38G, C39U
B8: Id_ii_S2_P3E.3_K3.2_C3.2_[C-2T]_[T-1A]_H3.2_A3.1_F3.1_T3.2_[T9A]_[A10C] (ssRNA)
RNA: B1 RNA with G28U, U29A, U38A
B9: Id_ii_S2_P3E.3_K3.2_C3.2_[C-2A]_[T-1G]_H3.2_A3.1_F3.1_T3.2_[T9A]_[A10C] (ssRNA)
RNA: B1 RNA with G28A, U29G, U38A
B10: Id_ii_S2_P3E.3_K3.2_C3.2_[C-2A]_[T-1A]_H3.2_A3.1_F3.1_T3.2_[T9A]_[A10G] (ssRNA)
RNA: B1 RNA with G28A, U29A, U38A, C39G
B11: Id_ii_S2_P3E.3_K3.2_C3.2_[C-2A]_[T-1G]_H3.2_A3.1_F3.1_T3.2_[T9C]_[A10C] (ssRNA)
RNA: B1 RNA with G28A, U29G, U38C
B12: Id_ii_S2_P3E.3_K3.2_C3.2_[C-2T]_[T-1G]_H3.2_A3.1_F3.1_T3.2_[T9G]_[A10C] (ssRNA)
RNA: B1 RNA with G28U, U29G, U38G
B13: Id_ii_S2_P3E.3_K3.2_C3.2_[C-2T]_[T-1A]_H3.2_A3.1_F3.1_T3.2_[A10C] (ssRNA)
RNA: B1 RNA with G28U, U29A
B14: Id_ii_S2_P3E.3_K3.2_C3.2_[C-2T]_[T-1G]_H3.2_A3.1_F3.1_T3.2_[A10G] (ssRNA)
RNA: B1 RNA with G28U, U29G, C39G
B15: Id_ii_S2_P3E.3_K3.2_C3.2_[C-2A]_[T-1A]_H3.2_A3.1_F3.1_T3.2_[A10T] (ssRNA)
RNA: B1 RNA with G28A, U29A, C39U
B16: Id_ii_S2_P3E.3_K3.2_C3.2_[C-2A]_[T-1G]_H3.2_A3.1_F3.1_T3.2_[A10T] (ssRNA)
RNA: B1 RNA with G28A, U29G, C39U
B17: Id_ii_S2_P3E.3_K3.2_C3.2_[C-2T]_[T-1C]_H3.2_A3.1_F3.1_T3.2_[T9C]_[A10C] (ssRNA)
RNA: B1 RNA with G28U, U29C, U38C
B18: Id_ii_S2_P3E.3_K3.2_C3.2_[C-2A]_[T-1C]_H3.2_A3.1_F3.1_T3.2_[T9C]_[A10G] (ssRNA)
RNA: B1 RNA with G28A, U29C, U38C, C39G
B19: Id_ii_S2_P3E.3_K3.2_C3.2_[C-2T]_[T-1C]_H3.2_A3.1_F3.1_T3.2_[T9G]_[A10T] (ssRNA)
RNA: B1 RNA with G28U, U29C, U38G, C39U
B20: Id_ii_S2_P3E.3_K3.2_C3.2_[C-2A]_H3.2_A3.1_F3.1_T3.2_[T9A] (ssRNA)
RNA: B1 RNA with G28A, U38A, C39A
B21: Id_ii_S2_P3E.3_K3.2_C3.2_[C-2A]_[T-1C]_H3.2_A3.1_F3.1_T3.2_[T9A] (ssRNA)
RNA: B1 RNA with G28A, U29C, U38A, C39A
B22: Id_ii_S2_P3E.3_K3.2_C3.2_[C-2T]_[T-1G]_H3.2_A3.1_F3.1_T3.2_[T9A] (ssRNA)
RNA: B1 RNA with G28U, U29G, U38A, C39A
B23: Id_ii_S2_P3E.3_K3.2_C3.2_[C-2A]_[T-1A]_H3.2_A3.1_F3.1_T3.2_[T9G]_[A10C] (ssRNA)
RNA: B1 RNA with G28A, U29A, U38G
B24: Id_ii_S2_P3E.3_K3.2_C3.2_[C-2T]_[T-1C]_H3.2_A3.1_F3.1_T3.2_[T9A]_[A10T] (ssRNA)
RNA: B1 RNA with G28U, U29C, U38A, C39U
B25: Id_ii_S2_P3E.3_K3.2_C3.2_[C-2T]_[T-1G]_H3.2_A3.1_F3.1_T3.2_[A10C] (ssRNA)
RNA: B1 RNA with G28U, U29G
B26: Id_ii_S2_P3E.3_K3.2_C3.2_[C-2T]_[T-1C]_H3.2_A3.1_F3.1_T3.2_[T9C]_[A10G] (ssRNA)
RNA: B1 RNA with G28U, U29C, U38C, C39G

Target: T1, PUF4 RNA-binding domain
Assay: Mg; RNA-MaP; 20 mM Na-HEPES pH 7.4, 30 mM KOAc, 0.75 mM MgCl2, 0.1% Tween-20, 5% glycerol, 0.1 mg/mL BSA, 2 mM DTT; 25 C; 0.0125-409.6 nM protein
Details: tags: N-His6-TEV cleaved; C-SNAP kept, Cy3B-labelled; label: tethered on chip by stalled RNA polymerase

Row | Binder | Kd [nM]
1 | UCUCUUAGUAUUAUAAUCUCUU (ssRNA) [Ib_S1_P5E.1_K5.1_C5.1_H5.1_[T1A]_A5.1_F5.1_[T9A]_T5.1] | 614
2 | UCUCUUUGUUUUAAUAUCUCUU (ssRNA) [Ib_S1_P5E.1_K5.1_C5.1_H5.1_[A4T]_A5.1_F5.1_[T8A]_T5.1] | 73.4
3 | UCUCUUCGUAUUAUAAUCUCUU (ssRNA) [Ib_S1_P5E.1_K5.1_C5.1_H5.1_[T1C]_A5.1_F5.1_[T9A]_T5.1] | 691
4 | B1 | 15.1
5 | B2 | 531
6 | B3 | 199
7 | B4 | 245
8 | B5 | 322
9 | B6 | 439
10 | B7 | 3.83
11 | B8 | 203
12 | B9 | 1960
13 | B10 | 1010
14 | B11 | 1900
15 | B12 | 2.63
16 | B13 | 93.1
17 | B14 | 1.52
18 | B15 | 720
19 | B16 | 407
20 | B17 | 228
21 | B18 | > 2300
22 | B19 | 1030
23 | B20 | 693
24 | B21 | 290
25 | B22 | 2.25
26 | B23 | 701
27 | B24 | 147
28 | B25 | 1.72
29 | B26 | 536
